B1: FBXO3 (parent)
chain: AGGFQQRQGLKYCLPLTFCIHTGL
B2: C10orf62 (parent)
chain: GHSHHSHHGHPSHQSHSLPNRRH

Variants of: B1
Experiment: protein stability index of a GFP-peptide fusion (GPS, HEK-293T) (PSI 1-6); higher = more stable
Settings: c terminus: a fixed tail appended
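Note: lentivirally expressed fusions sorted by FACS into six bins by GFP to DsRed ratio, PSI derived from sequencing read proportions per bin multiplied by bin number.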

Protein stability index: each site, then its substitutions
G3: F 3.02; A 1.48; K 2.51; N 3.27; D 3.1; M 2.47; L 3.11; C 2.66; E 1.99
G2: I 4.2; P 2.79; V 2.97; L 2.79; H 4.03; S 3.13; Y 2.4; R 2.59; N 2.94; E 2.36; K 3.68; D 1.68; C 2.6; F 2.79; T 1.88
A1: D 2.89; I 2; Y 3.08; R 2.39; Q 2.55; L 2.46; G 3.9; C 2.76; F 3.41; N 2.47; E 2.57; T 3.47; V 2.89; P 2.91; W 5.07; M 3.13; S 2.65; H 3.55; K 1.87

Variants of: B2
Experiment: as above
Settings: c terminus: native

Protein stability index, by site and new letter:
S6: Q 3.1; P 2.12; R 2.98; M 3.95; D 2.08; T 3.3; L 3.37; I 2.27; N 3.28; E 1.84; F 2.95; K 1.55; A 4.79; Y 3.47; H 4.03; V 2.71; W 4
H13: F 3.57; W 2.6; P 2.47; Q 2.12; S 2.65; Y 3.26; D 2.86; R 2.55; A 3.6; C 3.33; M 5.42; E 2.68; K 2.51; L 3.34; T 3.08
L18: Q 3.76; Y 2.08; T 2.27; H 4.06; M 2.16; A 3.18; V 2.52; W 3.46; E 3.19; C 2.94; N 2.88; R 4.23; D 1.85; G 2.38; P 2.11; F 3.24; I 3.49; K 1.51
N20: G 4.22; L 3.05; A 2.97; K 3.23; H 2.44; I 2.29; E 4.47; D 3.58; Y 2.58; P 2.07; M 3.84; T 3.28; S 1.35; F 2.31; V 3.13; Q 1.94
H23: L 3.52; F 2.77; N 3.15; A 2.23; K 4.73; C 2.68; M 2.18; W 2.25; R 4.71; I 2.78; Q 2.48; V 2.35; Y 3.4; P 2.31; S 2.88; T 2.88
Q14: K 2.75; T 3.78; Y 1.85; F 2.56; G 2.82; V 2.08; H 3.42; P 2.67; S 2.26; R 3.61; E 2; W 3.44; D 3.4; A 3.39; N 2.92; M 4.32; I 2.95
S15: N 3.44; E 3.39; W 2.92; K 3.18; M 2.74; T 2.91; V 3.59; D 2.07; F 2.19; H 2.48; R 3.2; Q 2.95; G 3.98; Y 2.6; A 3.68; P 3.1
S12: I 4.18; N 3.1; Y 2.21; E 3; L 2.34; W 3.49; M 2.27; R 4.62; Q 1.6; P 3.31; T 2.57; G 2.75; A 2.22; D 2.98
P19: E 2; Y 3.05; Q 2.38; C 2.95; R 2.09; H 2.4; F 2.38; N 2.4; G 2.35; K 2.15; T 4.47; D 3.02; L 2.28
P11: C 4.84; R 3.75; I 4.55; S 2.71; Q 3.94; K 4.06; Y 2.47; A 3.2; T 2.56; L 3.12; G 3.85; V 2.5; M 1.92; W 2.03; F 2.29; N 2.98; D 2.88; E 2.1
R22: K 4; P 3.56; M 3; Q 2.69; Y 2.11; W 2.86; F 2.84; G 2.15; A 3.28; D 3.39; T 3.14; S 3.94; E 2; H 4.93; L 1.29
R21: S 1.67; G 1.71; L 1.81; Y 2.17; F 2.13; H 2.67; E 2.81; C 4.2; N 2.6; A 1.97; Q 2.38; T 1.81; V 1.39; K 1.94; D 2.2; I 2.36; W 2.43; M 2; P 2.05
G9: M 3.76; L 2.26; P 1.91; A 2.81; S 2.37; Q 2.3; H 3.58; W 3.1; I 4.14; F 3.35; C 4.56; T 1.87; K 3.76; N 2.82; V 3.15; E 3.5; D 2.41
H5: M 2.23; N 2.35; T 3.1; S 2.38; P 4.04; Y 3.13; W 2.3
H8: C 4; S 2.96; A 5.15; K 3.13; Y 3.29; E 2.42; R 2.72; I 3.3; D 1.96; P 1.38; Q 2.84; G 2.46; M 2.06; T 3.37; F 3.5; N 4.02
H16: E 1.78; G 3.63; C 2.19; M 2.32; W 3.05; A 2.55; V 2.2; I 3.15; F 3.84; D 3.54; T 2.08; S 3; P 2.52
H10: Q 3.81; A 3.41; S 2.08; M 2.98; T 2.53; W 3.14; P 2.43; G 2.34; D 1.74; E 1.48; R 3.48; K 2.86; I 2.96; Y 3.67; C 3.79
H7: W 2.41; P 4.21; D 3.05; M 1.87; R 3.22; C 2.65; K 2.14; L 3.37; S 3.47; T 2.66; A 2.72; E 2.1; G 1.83; N 2.44
S17: F 1.8; I 2.64; M 3.01; T 4.17; Q 2.82; C 2.65; E 2.14; V 1.69; A 2.08; W 2.37; R 4.84; G 3.77; Y 4.98; D 2.43; P 4.04

From the supplement of paper PMC10567573
